# Measured values from publication PMC5896956, “Small molecule induced oligomerization, clustering and clathrin-independent endocytosis of the dopamine transporter” (eLife, 2018).
# B1: YFP-DAT additionally tagged with an extracellular hemagglutinin (HA) epitope (YFP-HA-DAT) (natural protein, human, UniProt Q01959 1-620, looked up)
# chain: MSKSKCSVGLMSSVVAPAKEPNAVGPKEVELILVKEQNGVQLTSSTLTNPRQSPVEAQDRETWGKKIDFLLSVIGFAVDLANVWRFPYLCYKNGGGAFLVPYLLFMVIAGMPLFYMELALGQFNREGAAGVWKICPILKGVGFTVILISLYVGFFYNVIIAWALHYLFSSFTTELPWIHCNNSWNSPNCSDAHPGDSSGDSSGLNDTFGTTPAAEYFERGVLHLHQSHGIDDLGPPRWQLTACLVLVIVLLYFSLWKGVKTSGKVVWITATMPYVVLTALLLRGVTLPGAIDGIRAYLSVDFYRLCEASVWIDAATQVCFSLGVGFGVLIAFSSYNKFTNNCYRDAIVTTSINSLTSFSSGFVVFSFLGYMAQKHSVPIGDVAKDGPGLIFIIYPEAIATLPLSSAWAVVFFIMLLTLGIDSAMGGMESVITGLIDEFQLLHRHRELFTLFIVLATFLLSLFCVTNGGIYVFTLLDHFAAGTSILFGVLIEAIGVAWFYGVGQFSDDIQQMTGQRPSLYWRLCWKLVSPCFLLFVVVVSIVTFRPPHYGAYIFPDWANALGWVIATSSMAMVPIYAAYKFCSLPGSFREKLAYAIAPEKDRELVDRGEVRQFTLRHWLKV
# notes: Dopamine transporter (DAT), human; Monomer runs at 95 kDa, SDS-resistant oligomer at about 290 kDa; also called dopamine transporter; human DAT; source: PAE cells, stably expressed, in lysate
# Molecular target: the molecule itself
# Assay: SDS-resistant oligomers on SDS-PAGE and western blot; PAE cells stably expressing the tagged transporter, vehicle (DMSO) or 20 µM AIM-100 for 2 hr at 37°C (also after cocaine, dopamine, amphetamine, modafinil, KRCA-0008, CHC siRNA, at 4°C or 20°C); lysis in TGH buffer, Laemmli buffer (2% SDS, 5% β-mercaptoethanol) 5 min at 95°C, 7.5% SDS-PAGE, blot with GFP antibody; oligomers (O) against monomers (M)
protein,measurement,value
B1,fold increase of the fraction of the ~290 kDa oligomer species with AIM-100 against vehicle,> 5 fold
same,stoichiometry N,~3
